Measured values from PMC2734569, “Functional mapping of the fission yeast DNA polymerase δ B-subunit Cdc1 by site-directed and random pentapeptide insertion mutagenesis” (BMC Molecular Biology, 2009).
Numbering of substitutions follows the chain as printed.

Experiments:
Assay in all cases: two-hybrid; LexA-Cdc1 bait (pBTM116 or pBTM116BN) with Gal4 activation domain-Cdc27 prey (pGAD2F-Cdc27) in S. cerevisiae CTY10-5d; ONPG liquid culture beta-galactosidase assay, mean of triplicates, as percent of wild-type Cdc1
Conditions in all cases: partners not purified
Cdc1-A2 = target: T1, Cdc1-A2 (Schizosaccharomyces pombe, UniProt P87324 1-462, Gly293Ala)
T1 construct: Cdc1, S. pombe, point mutant; source: yeast two-hybrid fusion, in S. cerevisiae CTY10-5d
T1 sequence (looked up): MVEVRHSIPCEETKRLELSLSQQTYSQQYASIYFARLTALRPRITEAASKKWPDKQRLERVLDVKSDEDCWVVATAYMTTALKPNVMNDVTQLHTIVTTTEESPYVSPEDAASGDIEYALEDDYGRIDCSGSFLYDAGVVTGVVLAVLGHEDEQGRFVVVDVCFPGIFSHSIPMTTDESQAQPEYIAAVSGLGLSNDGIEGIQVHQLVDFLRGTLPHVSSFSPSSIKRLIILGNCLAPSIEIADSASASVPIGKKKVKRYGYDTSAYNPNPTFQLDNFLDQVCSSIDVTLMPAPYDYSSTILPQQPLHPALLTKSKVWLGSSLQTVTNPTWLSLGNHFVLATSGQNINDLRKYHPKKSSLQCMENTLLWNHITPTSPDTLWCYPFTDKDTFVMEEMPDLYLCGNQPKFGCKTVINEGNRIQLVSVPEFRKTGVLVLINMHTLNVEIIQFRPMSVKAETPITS

Cdc1-A3 = target: T2, Cdc1-A3 (Schizosaccharomyces pombe, UniProt P87324 1-462, Asp296Ala)
T2 construct: Cdc1, S. pombe, point mutant; source: yeast two-hybrid fusion, in S. cerevisiae CTY10-5d
T2 sequence (looked up): T1 sequence (looked up) with A293G, D296A

Cdc1-A4 = target: T3, Cdc1-A4 (Schizosaccharomyces pombe, UniProt P87324 1-462, Pro303Ala)
T3 construct: Cdc1, S. pombe, point mutant; source: yeast two-hybrid fusion, in S. cerevisiae CTY10-5d
T3 sequence (looked up): T1 sequence (looked up) with A293G, P303A

Cdc1-J12 = target: T4, Cdc1-J12 (Schizosaccharomyces pombe, UniProt P87324 1-462, Ser-GlyValProHisSer-Ile)
T4 construct: Cdc1, S. pombe, with a pentapeptide inserted after residue 7; source: yeast two-hybrid fusion, in S. cerevisiae CTY10-5d
T4 sequence (looked up): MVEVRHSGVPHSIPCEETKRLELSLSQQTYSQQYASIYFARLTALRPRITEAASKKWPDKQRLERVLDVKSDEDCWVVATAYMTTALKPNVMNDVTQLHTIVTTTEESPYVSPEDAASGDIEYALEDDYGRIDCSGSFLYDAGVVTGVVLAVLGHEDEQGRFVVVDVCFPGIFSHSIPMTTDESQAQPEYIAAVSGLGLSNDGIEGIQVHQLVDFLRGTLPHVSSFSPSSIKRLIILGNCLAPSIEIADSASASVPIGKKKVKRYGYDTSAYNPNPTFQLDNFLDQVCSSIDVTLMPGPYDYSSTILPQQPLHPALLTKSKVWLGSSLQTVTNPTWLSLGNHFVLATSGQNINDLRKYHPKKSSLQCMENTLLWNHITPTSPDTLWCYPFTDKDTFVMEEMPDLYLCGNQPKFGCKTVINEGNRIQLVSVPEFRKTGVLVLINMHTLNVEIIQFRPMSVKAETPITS

- two-hybrid beta-galactosidase activity, % of wild-type Cdc1 (Cdc1-A2): 19%
- two-hybrid beta-galactosidase activity, % of wild-type Cdc1 (Cdc1-A3): 23%
- two-hybrid beta-galactosidase activity, % of wild-type Cdc1 (Cdc1-A4): 31%
- two-hybrid beta-galactosidase activity, % of wild-type Cdc1 (Cdc1-J12): 59%
B1: Cdc27 (fission yeast DNA polymerase delta C-subunit) (natural protein, Schizosaccharomyces pombe, UniProt P30261 1-372, looked up)
chain: MEEWRNFLDIKVINESSLVTVDNLSLQLDISSEKAQEYLNMFYQGNDFLYPIYLIHGQPIDDEINLEIDEESQPISNFPVLQYILCDKSSLQEKQSRLKSGYKTVIFALSSAPLSDFDELLPAVYEIREKDVLYKKEDADKYGFIFNENSVPRVLKKAPSTHSPQLSVPSKTSTIDKTDTRSTEKTKGKDIFSNARNQKGNSSRKNKKAPLENHKEKEPLLPKEEKLSEQAKRERDDLKNIMQLEDESVSTTSVHDSEDDNLDSNNFQLEIGTEAKSAAPDEPQEIIKSVSGGKRRGKRKVKKYATTKDEEGFLVTKEEEVWESFSEDENISTGTSNVVRNKPTTVNIATKKKNTAQSKPQQKSIMSFFGKK
notes: DNA polymerase delta C-subunit Cdc27, S. pombe; prey plasmid pGAD2F-Cdc27; also called pGAD2F-Cdc27; source: yeast two-hybrid fusion, in S. cerevisiae CTY10-5d
